The domain aggregation screens of Martell et al. (2025)

Test: soluble fraction after stress (log2 fold change); higher = more stays soluble; pooled small domains, quantitative proteomics
Settings: stress: 50 degC
Method in brief: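 Pooled custom libraries of small protein domains were measured in a high-throughput format, with quantitative proteomics as the read-out. Each library was stressed at 50°C. Aggregation propensity is given as the base-two logarithm of the fold change in how much of each protein stays soluble after the stress. Higher values mean a larger share of the protein remains in solution.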

HMEIIFVEHKVRPGESVWLIARKYKVKKNHILAVNNLSEKSIIRPKQILKIPTSGYDQYKKSVE
soluble fraction (log2): -3.22

HMRQYPSGVFKEEGVKAVYIHAGTPFLVIAAQYKIPLARLFEWNNLLPSTEARISQVIYLERPG
soluble fraction (log2): -3.67

HMQFYSGLEARLMDPNTPEVFDDPISLMAFLQQKNISRVELEDNLLLPYLKEMAGQPIPKAELLEIIRK
soluble fraction (log2): -0.475

HMSWEQELIEKANEIIDLYPEKRSALGPLLYLAQERDGYISDESIVEISNLVGITEVQVKSVASFYSMYK
soluble fraction (log2): -3.57

HMSVETSDLLPLIEQVLSLNPDKVKEYQNGKKGLLGFFMGQIKQTAGVAIDVGTLKPLLEDALHKDL
soluble fraction (log2): -0.493

HMQGVTVPDLTRVSLEEAVATISSLGLRYEISDRRSNAAFPANYVLDQAPGANTIVKPNRKVYLTVNAA
soluble fraction (log2): 0.35

HMRPEVALSSRELEILEALATGKSNKELAQRLFISEATVKTHLIHIYQKLGVDTRTAAVTVARERKL
soluble fraction (log2): -1.52

HMETWKLYKRAYKKYYARYMKGNMSEADFKAWATQAAADRDAAIEQITPEIDAALKAQIIEQLREKLNR
soluble fraction (log2): -0.856

HMVIGKHSGSHTLVNDLAKRGITLDKEESATLLEMVRKAAVGLHRSISSDELYGLYKDMKSGQDPFEDS
soluble fraction (log2): 0.0935

HMDTSADEVKQLIASFVEQEDKRKPLSDQKIVELLAEKEQKISRRTVAKYRDALNIPSSSKRKRF
soluble fraction (log2): 0.0434

HMRILDFPALKTEFDQLTKDLMAKYPEDGADRVRAIIETVLGPGKKVGALQPHQAELLAEVNTSLKANL
soluble fraction (log2): 0.153

HMQMEDTDALLQVAKEVVAENQDTVEAYLGGREKAFASLIGAAMKKTRGKANPKVIRQLILDLIQ
soluble fraction (log2): 0.254

HMIIVMSANANAREISEVIARIRAMGYDVHLSHGKERTIIGVIGRGTPIDREQLSLMSGVQQVMPV
soluble fraction (log2): -1.03

HMIVVMQPGATKEQVQAVIDRVAEFGFQTKLAPGAERMVIGVVGSPLPDTLKEALERLPGVEEVIRVSKR
soluble fraction (log2): -0.0691

HMVTIEEMMDRLLTRVQRAVNMSFSEFSGEAKEKVEVIVSFLALLELVKQGAVDVLQHENFSDIRIENT
soluble fraction (log2): -0.857

HMALIGSNLRHLRNERKLSQQELADLIRVGRTTIANIEANLANPGHKTLLEIVKVFDITIDELLHTDLTK
soluble fraction (log2): -0.886

HMVFKSAQEGLDFYSKQLNDVDATLGRIRRGEESGNGLYGSNRVKNLEEQRKKLDSFVTAYRNAVNAT
soluble fraction (log2): 0.08

HMGNTTEVLVATQDVKANTKIKESMFTTERVDTASLPDNYLSADSAKDVVGYYTYIGFTKGSVISKSNIAT
soluble fraction (log2): 0.0925

HMNSNISYSEFLSQVEKGTINSVEITGNSIKGIYADGGEFITFSPGDPGLIDKLQRSDIEILATPPA
soluble fraction (log2): -0.104

HMGTGSSAERITMLNSILERQIQAMEIQGNPDAPIVNIQKIYTTLQRIVETAGLKDVDQFFMNPLQGQKEM
soluble fraction (log2): -0.253

HMDAEELNSKAKDEFTWLEDDESETNLEYRKMVSSEDMAIVAKVAPALAAKLKYQLAHAATNMV
soluble fraction (log2): 0.0207

HMVMNYKKIGKKIADRRILLGITQEELAEKVDSSANYISNIETGIKSGSLIFYIKVANELKLSLDFLFSDE
soluble fraction (log2): -0.893

HMSSRNLIIFYDSPQAENALLATAERYGAILLHHYRNLHGIAVAIPADKDMAQAVTYFSRQPGVRQV
soluble fraction (log2): -0.803

HMKKYLIIDAANEKIIFKIIDNNKTYTNDYENSRKNFDRFAVLLFNFLNKNMISFDTIDKAL
soluble fraction (log2): -0.0864

HMENPVPVIITDQNFQPLLWKNVGVPTDTIFHELSPENQKKLENLMKTMVQMPLTDDGRISGYAYYSK
soluble fraction (log2): -0.195

HMGFKLQRYTTFVVERLKKYQDTPAAQMHDLLKEHYPDFPAVSPKTVYNYVMKIRQEHGLPAV
soluble fraction (log2): -3.63

HMPASVEYIRLAAEQMTGQQVTIIEQPGNYAFILRIHLNDIYSLDLAALRARIDELKPAHLTYTVEQYD
soluble fraction (log2): -2.71

HMFTEPQKLVKRILNMLGHRYDDASIQARSDFQASNNYHKVQVKKKRESMEEYTAWLEEMYDAYRIN
soluble fraction (log2): -1.43

HMGQEEKDIFLKLINISGIGPKLALNILSGIEASELEEAVRNTNVTRLSMVPGIGQKTALRIIMELSDKLE
soluble fraction (log2): -0.432

HMSLEDMILSLSSRIRRGESLHFRELLVAIETKSGMVTIFMAVLELLKQQVMEMRYEDDDIIFT
soluble fraction (log2): -0.912

HMKSDVVFDITDGTVKAMLKFNRSDVTILNNDGKNYYLFTANGEFTFKYQDGSGEYYEKTVYVDWLEDE
soluble fraction (log2): -1.24

HMRSVPNVAGLGMDGAAFQLGKAGFAIGTITPADDPKAVVGSIQRTEPAAGTVADRDTVVNLFQV
soluble fraction (log2): 0.0939

HMSAEDQRRASQEAAYRFMQVMAGNEAGFEDAARALFAGDNHRFEVLIQSWPDDVRDHVSLLSVDAFA
soluble fraction (log2): -0.615

HMRAERVQITDPYIELHTGPGRGFPIFFVAPREQWISIELRHTDWFKVRAVGGQVGWVQRKQLEST
soluble fraction (log2): -0.455

HMGEKTVPNVIGQKLATAKQLLEKEGLTVGSTSYNKNQADKDTVLSTDPAPGSHLSEGAKVNLTLSSGA
soluble fraction (log2): 0.261

HMRSVLSDEIYLLIRKMIFNYEILPGAKVNIDALAKKLDVSQTPVREALSRLESDGLIVKEPLKGFRATD
soluble fraction (log2): -0.875

HMTQTAVFSKGEQEYYFPLSKVLFFETDGNTINVHTADDIYETRYRLYELEEMLPGSFMRISKSAVVNTNR
soluble fraction (log2): -0.0904

HMDLRAPKPIKEMGEEYIKLYQYLRKGESENIVMSKMNISLDDYDYMRSEIEDKLSLYNMLDLLRKP
soluble fraction (log2): -0.718

HMVSLLDWAYKQVRRMLFSGDLPQGQKIVVAQLANQLSISPTPVKEALNRLAVEGLLEAVPRRGFQVR
soluble fraction (log2): -0.229

HMTGINMSYEEYKAMADIIVPLIKAGHSPYHIVTNHPELNISEKTLYNYIENGIFREFGLLDINL
soluble fraction (log2): -0.313

HMTLTIEDGYVNAKLKTTVEGLAEDSTIKVDSIEYTNAGKNDILTVFVEDKPYRVEKYKINIAPEDS
soluble fraction (log2): 0.0185

HMRQSDIAAAFRESILRSSKGFQYLHTRDFVTALRRRGIHLSEVEANSWIAREKTYFVDSALDHSENRLWI
soluble fraction (log2): -1.6

HMQQLIEFSVTKGHPWINKKIMDLNLPENQLILTIQREGHVVSAEGKTIILENDRITISTDDR
soluble fraction (log2): -0.0156

HMEADERRNEILDAAETLITEKGYSKTTIIDILNQVGIAKGTFYYYFKSKEEVMDAIIERFI
soluble fraction (log2): -2.25

HMKGVPGIGDYVKLSGGSTVGKVLSISGKKAEVAFGLLRTTTELSKLEKVRKPKELLQSGVSS
soluble fraction (log2): 0.269

HMKRITKKQLSQQLEQFFSSQPGKKLTLKDIFRALHLDTHPLKMLAMDIMEEMAWDDFITKKGENAYQLNT
soluble fraction (log2): -0.729

HMGGFSVTAEAFDGTPEVGKTVGFTAGSTKIKVEDTKGDATFGTILEKETVGFGEGKYTYFYIGL
soluble fraction (log2): -0.223

HMYDEAAIRKAVMTFVTDNRDERLDLAKISAVLTSKFGNINFDELGYKRFSSFIDSFPELRRNNTFVSLR
soluble fraction (log2): -0.312

HMETGNEDYRVGKELAYDGNYKAATIYLMKSIKDDPNNPDAFNMLGFSHRKLGNNDEAYIYYNKALEL
soluble fraction (log2): -0.387

HMGFSLEQFGTDPDLKKIVENAFERIITASEGRIFKSDFSSNNSALPLEIFSFLIAVILLKLSGMN
soluble fraction (log2): -0.142

HMDVADITGTRKAAILLLTMDEELSKELLKEFERHEIEAIGKEIANIKYIPENIVKQVHSEFLKNINKS
soluble fraction (log2): -0.212

HMKAQTVPQFVGMTMTEAEEKASELGITLIEGAVVDSVEPKDTILTQDVDEGTEITGKMEIMVTISS
soluble fraction (log2): -0.28

HMDRMMQPETWGRVYQWITDDPQVPDREEVLTLIKYHYGDFGKLMKLLHRLNEGKAWTYLSEHIFPRM
soluble fraction (log2): -0.123

HMKITFNPVSSGRLDIILAEKTGYTRSYVKQLVEKQAVTINGEAAKKSGQNVKAGDEIALDEP
soluble fraction (log2): 0.0957

HMDPLADLFSRIRNAQMRNKKVVTSPASKLRAGILEVLAKEGYIRGYAMTQHASGKNELDIELN
soluble fraction (log2): -1

HMGSIDYLVGSRLRQYRRLRGYSLIEFSAMLHRSKSAISKYERGEVSIDLRTLNEMARLLDIPLSGLLL
soluble fraction (log2): -4.56

HMIRSNLAEQAYAQLKALIHDFQLLPGDRFSENEMGTRLGVSRTPVREALFRLRNEGFLEVESKAGWYVK
soluble fraction (log2): -2.38

HMQMEYEKAIAYILDKIKSGELSIGSKLPAERVIADTLHIGRNSTREALSILHGMGMVDRVHGSGNYISEH
soluble fraction (log2): -0.421

HMDYGTATASAILYLEKIDPENPYLLLAKDTITTNPKMSVNFALKGIIESKKGEKEENLNKALEIMSSL
soluble fraction (log2): 0.049

HMNTLTKEDIQKAIDVIPIDFKSVVILNLVEGFSYKETAEILEIPIGTVMSRLHRGRKILQKLLWEYSSSK
soluble fraction (log2): -1.32

HMQEEMIRGDIKLNTVMQTVHLAVGTETERNWQPVETTAKEFELLKLLMENPGVTLKKEYLFHMLI
soluble fraction (log2): -0.102

HMGVRLAPEVDRIPYGQMHPNLKKVKDLYEASYKAYVQALSSGNQALAKEKLEEFQSTKARYQRALSAYT
soluble fraction (log2): 0.189

HMEYELYALKEEVLKRLTREDRELLILLFEERRTIHAVAQRLGLSDSAVYKRRTQLVNKVKVIASMLM
soluble fraction (log2): -2.13

HMKAGEDAVQKAVLEAVAESAAAVADYKAGSERALNFIVGKVMKKTRGKASAAEVHRLVREEVDR
soluble fraction (log2): 0.0904

HMPAELGVVVRNANLRSGPGTKYAIVGSAPAGTTVRIAGTNKAGDWYHLSSGRWIAAFLVDRN
soluble fraction (log2): -0.941

HMEFDSLINYEVKKKETLFSISKKFKIEINDLLSFNTELKNNKLKKNSIIIIPLKKKIVESQNFEKQKIID
soluble fraction (log2): -1.37

HMNRTKQIYNELLFRLDQGVYPPESKFPSESQLADEFSVSKVTMNKIVSMLASSGRLSRGVRGAGTFVSSP
soluble fraction (log2): -0.775

HMEDDRLIQNLLLTAKNLVMDVGRMDESALAENEDTVRTAMLFALGYLYENRSNPDYHKLTLNLRSILFA
soluble fraction (log2): -0.493

HMKLVTIPNVIGKTKEDAMKTLKDLGVTVTVETKESEKDDGTVIAQSKAEGTKLTAGENVTITVSKKKK
soluble fraction (log2): 0.139

HMAREQISVSQMVRDVRDGQVKNIEVLGQELRLSYADGSQKVTRKEEGQQALEILFASDIDLAALDLEVQ
soluble fraction (log2): 0.0848

HMKPRVTVVTLGVDDLERAVRFYAEGLGFPTEGIVGREFEFGAVAFFDMQPGLRLALWPRRSLAHDSGLP
soluble fraction (log2): -0.306

HMKIRIIKTASNAKAVQIVSYKNNKRIVLQHIGSAHTDETLNDLKILAEEWIKDYNHQLSIF
soluble fraction (log2): -2.49

HMNGSVLVTGGSVWIRAGASKETDGLGIVHKGDVLKRSGSDASGWRGVVYEGQNAFISAKYSSI
soluble fraction (log2): -0.916

HMLKPIHKDWSPNGDAKEILLKAGITEEFIQKELPEFIMYWSERNEESDIWNSKFIAHIRRRWGRFS
soluble fraction (log2): -1.14

HMGILPDDVKLNIKEAKKIGFPIMLKAIHGGGGRGMMIVQSEDEFADAMKITKTEAKNSFGNGDLYFEKFF
soluble fraction (log2): 0.238
